Data set [1] concerns the target Bacillus megaterium TnrA, full length (Bacillus megaterium). Description: crystal structure.
Data set [2] deals with Bacillus subtilis GlnK, wild type (Bacillus subtilis). Description: crystal structure.
For data set [3] the target is unchanged. Description: SAXS.
Data set [4] addresses Bacillus subtilis TnrA, full length (Bacillus subtilis) (UniProt Q45666). The data set can be described thus: ITC. On the technique in general: In ITC the heat of successive injections is recorded.
In data set [5] the target is T1, TnrA (Bacillus subtilis, UniProt Q45666 1-110).
T1 sequence: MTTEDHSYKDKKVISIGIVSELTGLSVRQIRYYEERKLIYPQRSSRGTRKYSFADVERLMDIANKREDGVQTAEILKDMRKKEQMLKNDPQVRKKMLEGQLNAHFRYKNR
Description: fluorescence polarization. Background: Polarisation of emitted light reports the rotation of a fluorescent probe.

Data set [6] has as its target T2, GlnRΔ18 (Bacillus subtilis, UniProt P37582 1-117, del118-135).
T2 sequence: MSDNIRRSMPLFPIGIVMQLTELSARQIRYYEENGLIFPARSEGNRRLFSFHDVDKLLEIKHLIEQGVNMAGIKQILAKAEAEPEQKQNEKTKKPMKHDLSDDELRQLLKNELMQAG
Description: fluorescence polarization.

Data set [7] addresses T3, GlnR FL (Bacillus subtilis, UniProt P37582 1-135).
T3 sequence: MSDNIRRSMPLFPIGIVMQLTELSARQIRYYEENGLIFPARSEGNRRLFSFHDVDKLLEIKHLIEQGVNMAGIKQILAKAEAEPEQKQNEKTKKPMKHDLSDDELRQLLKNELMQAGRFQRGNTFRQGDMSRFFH
Description: fluorescence polarization.

Data set [8] deals with the molecule itself. Description: crystal structure.
Data set [9] deals with T4, TnrA (Bacillus megaterium, UniProt G2RUZ1 1-108).
T4 sequence: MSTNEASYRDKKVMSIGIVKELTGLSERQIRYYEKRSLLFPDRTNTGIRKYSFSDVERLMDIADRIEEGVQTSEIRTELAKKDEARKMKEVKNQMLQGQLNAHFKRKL
Description: X-ray crystallography.

Data set [10] addresses T5, Bacillus subtilis glutamine synthetase, wild type, full length (Bacillus subtilis, UniProt P12425 1-444).
T5 sequence (looked up): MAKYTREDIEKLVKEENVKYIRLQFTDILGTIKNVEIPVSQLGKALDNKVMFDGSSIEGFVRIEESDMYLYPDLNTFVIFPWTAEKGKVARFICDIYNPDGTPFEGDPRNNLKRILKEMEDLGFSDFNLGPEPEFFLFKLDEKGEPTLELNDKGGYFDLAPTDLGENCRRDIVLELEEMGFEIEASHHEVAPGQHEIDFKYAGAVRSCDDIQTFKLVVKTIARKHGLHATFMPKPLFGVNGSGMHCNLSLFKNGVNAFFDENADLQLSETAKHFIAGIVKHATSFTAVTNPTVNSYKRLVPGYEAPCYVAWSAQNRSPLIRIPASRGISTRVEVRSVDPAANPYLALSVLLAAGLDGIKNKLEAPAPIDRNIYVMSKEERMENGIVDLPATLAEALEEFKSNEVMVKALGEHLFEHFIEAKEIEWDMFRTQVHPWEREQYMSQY
Description: crystal structure.

The target in data set [11] is T5, Bacillus subtilis glutamine synthetase, …. The data set can be described thus: crystal structure. This is another data set of the same source.
Data set [12] concerns the target T6, GS(E424K) (Bacillus subtilis, UniProt P12425 1-444, E424K).
T6 sequence (looked up): T5 sequence (looked up) with E424K
The data set can be described thus: fluorescence polarisation.

The target in data set [13] is T7, TnrA;GlnK (Bacillus subtilis;Bacillus subtilis, UniProt Q45666;Q07428 1-110;1-116, |).
T7 sequence 1: T1 sequence
T7 sequence 2: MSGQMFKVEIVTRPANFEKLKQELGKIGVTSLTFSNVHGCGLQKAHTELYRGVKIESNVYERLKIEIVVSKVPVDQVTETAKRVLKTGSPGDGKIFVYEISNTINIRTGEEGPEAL
The data set can be described thus: SAXS.

Residue numbers refer to the chain shown, from its start. Numbers in names are those of the source. Like-named read-outs stand apart in the source and are kept apart here. Where only a bound is given, the exact number is not on record here.

As usually defined, the stoichiometry N is a count of units in the complex or per binding partner. On to “Bacillus megaterium TnrA, full length (natural protein)”, for which the stoichiometry N in [1] amounted to 2.

“Bacillus subtilis GlnK, wild type (natural protein)”: the stoichiometry N in data set [2] and in data set [3] was 3 each time. In data set [4], this molecule gave a stoichiometry N (GlnK subunit per TnrA subunit) of 0.5.

B1: 21mer FP (dsDNA)
DNA 1: CGTGTAAGATTTCCTGACACG
DNA 2: CGTGTCAGGAAATCTTACACG
The term Kd denotes the free concentration of one partner at which half of the binding sites on the other are occupied at equilibrium, for simple one-to-one binding. A lower Kd goes with tighter binding. B1: the Kd in data set [5] was 11.6 ± 1.8 nM; in [6], 6 ± 0.9 nM. The molecule also came in with a binding signal in [7] above 10 fold weaker than GlnRΔ18.

B2: 17mer FP (dsDNA)
DNA 1: TGTAAGATTTCCTGACA
DNA 2: TGTCAGGAAATCTTACA
For the molecule B2, the Kd stood at 15.7 ± 0.9 nM in data set [5] and 8.1 ± 0.3 nM in data set [6].

B3: GlnRΔ18 (domain or fragment, Bacillus subtilis, UniProt P37582 1-117, looked up)
chain: T2 sequence
With B3, in [8], the “stoichiometry N” value came to 2.

B4: 21mer site (crystal) (dsDNA)
DNA 1: CGTGTAAGATTTCCTGACACG
DNA 2: CGTGTCAGGAAATCTTACACG
B4: the binding result in data set [9] is on record as “binds”.

B5: TnrA(74–110) (domain or fragment, Bacillus subtilis, UniProt Q45666 74-110, looked up)
chain: EILKDMRKKEQMLKNDPQVRKKMLEGQLNAHFRYKNR
B5: the binding result in data set [10] is given as “binds”.

B6: GlnR C-terminal peptide (peptide)
peptide: RFQRGNTFRQGDMSRFFH
For B6, the binding result in data set [11] is listed as “binds”.

B7: TnrA(K108E) (natural protein, Bacillus subtilis, UniProt Q45666 1-110, looked up)
chain: T1 sequence with K108E
On to B7, for which the binding result in data set [12] is “binds”.

B8: 17mer SAXS (dsDNA)
DNA 1: TGTCAGATAATCTGACA
DNA 2: TGTCAGATTATCTGACA
Turning to B8, in [13], the binding result is given as “binds”.

The record behind these values is article PMC4335299 (Genes & Development, 2015).
